Results published in paper PMC6842044.

Target: Glial cell line-derived neurotrophic factor (GDNF), immobilised for SPR (UniProt P39905)
Assay: SPR

B1: Activin receptor-like kinase 5 (ALK5), analyte in SPR (receptor)
chain: LQCFCHLCTKDNFTCVTDGLCFVSVTETTDKVIHNSMCIAEIDLIPRDRPFVCAPSSKTGSVTTTYCCNQDHCNKIELPTTVKSSPGLGPVELAAVIAGPVCFVCISLMLMVYICHNRTVIHHRVPNEEDPSLDRPFISEGTTLKDLIYDMTTSGSGSGLPLLVQRTIARTIVLQESIGKGRFGEVWRGKWRGEEVAVKIFSSREERSWFREAEIYQTVMLRHENILGFIAADNKDNGTWTQLWLVSDYHEHGSLFDYLNRYTVTVEGMIKLALSTASGLAHLHMEIVGTQGKPAIAHRDLKSKNILVKKNGTCCIADLGLAVRHDSATDTIDIAPNHRVGTKRYMAPEVLDDSINMKHFESFKRADIYAMGLVFWEIARRCSIGGIHEDYQLPYYDLVPSDPSVEEMRKVVCEQKLRPNIPNRWQSCEALRVMAKIMRECWYANGAARLTALRIKKTLSQLSQQEGIKM
With B1 as the binder, how does the Kd read?
Its Kd is 85.5 nM.
